What was measured:
[1] = Stability effect of xanthine on urate oxidase from Micrococcus at 2° C. to 8° C.: SEC; format: physicochemical; details: for High molecular weight % / Low molecular weight % / Main peak area / Main peak ratio % / Total peak area: SEC
Experimental: SEC, 7.8×300 mm chromatographic column or equivalent column was selected. 0.05 mol/L Na2HPO4—NaH2PO4, 0.3 mol/L NaCl, pH 7.0 was used as the mobile phase. The flow rate of HPLC was set to be 0.5 ml/min, and the detection wavelength to 280 nm. Isocratic elution was performed for 35 min, and the injection volume was 10 μl. From the SEC results of the stability test at 2° C. to 8° C. in Table 3, it can be seen that the total peak area of the group with small molecules added on day 15 is larger and the main peak ratio thereof is higher.

[2] = Effect of xanthine on the activity of PEGylated urate oxidase (UV 293 nm); format: biochemical; details: xanthine 0.075 to 1.2 μg/ml
Experimental: The method used for determining the activity of urate oxidase and PEGylated urate oxidase was as follows. […] Therefore, the UV spectrophotometer detection wavelength was 293 nm. The buffer solution was used as a blank control, and the absorption zero point was calibrated. In the quartz cuvette, 2.95 ml of substrate reaction solution was added followed by 50 μl of the test solution, mixed immediately, and the light absorption value at 293 nm was measured. According to C=A/εL (A being the absorbance value of a specific concentration of uric acid at 293 nm, εbeing the molar extinction coefficient of uric acid, L being the light path of the cuvette, and C being the molar concentration of uric acid), the degradation concentration of uric acid and then the enzyme activity were calculated. Definition of the activity of urate oxidase and PEGylated urate oxidase: at the optimal reaction temperature of 37° C. and the optimal reaction pH of 9.5, the amount of enzyme required to convert […] uric acid into allantoin per minute being defined as one activity unit (U). […] The PEGylated urate oxidase solution was mixed with different amounts of xanthine at a molar ratio of 0.05 mg/ml PEGylated urate oxidase to xanthine of 1:0, 1:3, 1:11, and 1:44, and then the activity of urate oxidase and polyethylene glycol-modified urate oxidase was determined according to the above-mentioned detection method.

[3] = Description: As the amount of xanthine added increases, the pH of the solution needs to be further increased to dissolve xanthine. However, high pH conditions will cause protein denaturation. […] The stability change trend of PEGylated urate oxidase tetramer was detected by the detection method of high and low molecular proteins of PEGylated urate oxidase.
The situation where the molar ratio of xanthine to PEGylated urate oxidase was higher than 26:1 was studied.

[4] = Stability of S1 and S2 urate oxidase with/without xanthine at 37° C.: SEC detection of high and low molecular proteins; format: physicochemical; details: for High molecular weight % / Low molecular weight % / Main peak %: storage 37° C. ± 2° C.
Experimental: SEC, 7.8×300 mm chromatographic column or equivalent column was selected. 0.05 mol/L Na2HPO4—NaH2PO4, 0.3 mol/L NaCl, pH 7.0 was used as the mobile phase. The flow rate of HPLC was set to be 0.5 ml/min, and the detection wavelength to 280 nm. Isocratic elution was performed for 35 min, and the injection volume was 10 μl.
(§1) In this example of the present disclosure, xanthine was added to the S1 and S2 samples at a molar ratio of 26 times (xanthine:urate oxidase). The samples were packaged and placed at 37° C. for stability evaluation at days 0, 1.5, 6, and 16. The evaluation indicators include the content of high and low molecular proteins and enzyme specific activity.

[5] = Stability of S1 and S2 urate oxidase with/without xanthine at 37° C.: enzyme specific activity (uric acid absorbance at 293 nm); format: biochemical; details: storage 37° C. ± 2° C.
Experimental: (§2) The method used for determining the activity of urate oxidase and PEGylated urate oxidase was as follows. […] Therefore, the UV spectrophotometer detection wavelength was 293 nm. The buffer solution was used as a blank control, and the absorption zero point was calibrated. In the quartz cuvette, 2.95 ml of substrate reaction solution was added followed by 50 μl of the test solution, mixed immediately, and the light absorption value at 293 nm was measured. According to C=A/εL (A being the absorbance value of a specific concentration of uric acid at 293 nm, εbeing the molar extinction coefficient of uric acid, L being the light path of the cuvette, and C being the molar concentration of uric acid), the degradation concentration of uric acid and then the enzyme activity were calculated.
(§3) Definition of the activity of urate oxidase and PEGylated urate oxidase: at the optimal reaction temperature of 37° C. and the optimal reaction pH of 9.5, the amount of enzyme required to convert […] uric acid into allantoin per minute being defined as one activity unit (U).
as §1

[6] = Stability effect of xanthine on urate oxidase from Micrococcus at 2° C. to 8° C.: enzyme activity; format: biochemical; details: storage 2° C. to 8° C., 15 d
Experimental: as §2, §3

[7] = immediate detection after process preparation

| Molecule | Enzyme specific activity U/mg ([5]; 0 d) [U/mg] | Enzyme specific activity U/mg ([5]; 1.5 d) [U/mg] | Enzyme specific activity U/mg ([5]; 6 d) [U/mg] | Enzyme specific activity U/mg ([5]; 16 d) [U/mg] | High molecular weight % ([4]; 0 d) [%] | Low molecular weight % ([4]; 0 d) [%] | Main peak % ([4]; 0 d) [%] | High molecular weight % ([4]; 1.5 d) [%] | Low molecular weight % ([4]; 1.5 d) [%] | Main peak % ([4]; 1.5 d) [%] | High molecular weight % ([4]; 6 d) [%] | Low molecular weight % ([4]; 6 d) [%] | Main peak % ([4]; 6 d) [%] | High molecular weight % ([4]; 16 d) [%] | Low molecular weight % ([4]; 16 d) [%] | Main peak % ([4]; 16 d) [%] | further results |
| --- | --- | --- | --- | --- | --- | --- | --- | --- | --- | --- | --- | --- | --- | --- | --- | --- | --- |
| O=c1[nH]c(=O)c2[nH]cnc2[nH]1 [xanthine] |  |  |  |  |  |  |  |  |  |  |  |  |  |  |  |  | effect of xanthine on the stability of the enzyme derived from Micrococcus ([1]; 26 times xanthine, 2° C. to 8° C., day 15, text): improve the stability of the enzyme derived from Micrococcus to a certain extent; effect of the addition of xanthine on the activity of PEGylated urate oxidase [2]: no effect; solubility of xanthine [3]: good solubility; effect of xanthine on the product stability of commercially available products and PHC ([4]; 26 times molar ratio, 37° C.): significantly improve the product stability |
| S1: Commercially available unmodified urate oxidase from Aspergillus flavus (SEQ ID NO: 8) (protein) SAVKAARYGKDNVRVYKVHKDEKTGVQTVYEMTVCVLLEGEIETSYTKADNSVIVATDSIKNTIYITAKQNPVTPPELFGSILGTHFIEKYNHIHAAHVNIVCHRWTRMDIDGKPHPHSFIRDSEEKRNVQVDVVEGKGIDIKSSLSGLTVLKSTNSQFWGFLRDEYTTLKETWDRILSTDVDATWQWKNFSGLQEVRSHVPKFDATWATAREVTLKTFAEDNSASVQATMYKMAEQILARQQLIETVEYSLPNKHYFEIDLSWHKGLQNTGKNAEVFAPQSDPNGLIKCTVGRSSLKSKL | 15.3 | 12.6 | 8.5 | 3 | 0.3 | 1 | 98.8 | 0.2 | 5.6 | 94.2 | 7.3 | 17.7 | 75 | 17.2 | 51.7 | 31 |  |
| S2: Homemade recombinant pig-baboon chimeric urate oxidase (SEQ ID NO: 1), not PEG modified (protein) TYKKNDEVEFVRTGYGKDMIKVLHIQRDGKYHSIKEVATTVQLTLSSKKDYLHGDNSDVIPTDTIKNTVNVLAKFKGIKSIETFAVTICEHFLSSFKHVIRAQVYVEEVPWKRFEKNGVKHVHAFIYTPTGTHFCEVEQIRNGPPVIHSGIKDLKVLKTTQSGFEGFIKDQFTTLPEVKDRCFATQVYCKWRYHQGRDVDFEATWDTVRSIVLQKFAGPYDKGEYSPSVQKTLYDIQVLTLGQVPEIEDMEISLPNIHYLNIDMSKMGLINKEEVLLPLDNPYGKITGTVKRKLSSRL | 11.3 | 5.2 | 3.2 | 1.2 | 0.7 | 0.3 | 99 | 54.5 | 0.2 | 45.3 | 75.1 | 0.5 | 24.4 | 85.1 | 5 | 9.9 |  |
| urate oxidase from Micrococcus: Homemade recombinant urate oxidase from wild-type Micrococcus (SEQ ID NO: 9), not PEG modified (protein) MTNIILGKNQYGKAEVRLVKVTRNTCRHEIQDLNVTSQLRGDFEAAHTAGDNAHVVATDTQKNTVYAFARDGFATTEEFLLRLGKHFTEGFDWVTGGRWAAQQFFWDRINDHDHAFSRNKSEVRTAVLEISGSEQAIVAGIEGLTVLKSTGSEFHGFPRDKYTTLPETEDRILATDVSARWRYNTVEVDFDAVYADVRGLLLKAFAETHSLALQQTMYEMGRAVIETHPEIDEIKMSLPNKHHFLVDLSPFGQDNPNEVFYAADRPYGLIEATIQREGCRADHPIWSN |  |  |  |  |  |  |  |  |  |  |  |  |  |  |  |  | High molecular weight % [1, 7]: 40.01%; Low molecular weight % [1, 7]: 2.34%; Main peak area [1, 7]: 3,986; Main peak ratio % [1, 7]: 57.65%; Total peak area [1, 7]: 6914.90; High molecular weight % ([1]; storage 2° C. to 8° C., 15 d): 74.58%; Low molecular weight % ([1]; storage 2° C. to 8° C., 15 d): 9.11%; Main peak area ([1]; storage 2° C. to 8° C., 15 d): 814; Main peak ratio % ([1]; storage 2° C. to 8° C., 15 d): 16.31%; Total peak area ([1]; storage 2° C. to 8° C., 15 d): 4993.05; Enzyme activity U/mg [6]: 3.58 U/mg |
